Source: patent US20110305711A1 (Eli Lilly, published 2011)

Tests used:
[1] = biological target: Human CGRP (human) (UniProt P06881); test: SPR, Biacore T100, 37 C
[2] = biological target: Human CGRP (human) (UniProt P06881); test: SPR, Biacore T100, 37 C, antibody captured on protein A, CGRP as analyte; n=1
[3] = biological target: Human CGRP (human) (UniProt P06881); test: SPR, Biacore T100, 37 C, antibody captured on protein A, CGRP as analyte; mean ± SD, n=2
[4] = biological target: Human CGRP (human) (UniProt P06881); test: SPR, Biacore T100, 37 C, antibody captured on protein A, CGRP as analyte; mean ± SD, n=3
[5] = biological target: T1, human α-CGRP (Bachem H1470) (human, UniProt P06881 83-119); test: cell-based or functional assay
T1 peptide (looked up): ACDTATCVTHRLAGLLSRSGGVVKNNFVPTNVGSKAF

[6] = biological target: Human CGRP (human) (UniProt P06881); test: SPR, Biacore T100, 37 C, antibody captured on protein A, CGRP as analyte; mean ± SD, n=6
[7] = biological target: Human CGRP (human) (UniProt P06881); test: SPR, Biacore T100, 37 C, antibody captured on protein A, CGRP as analyte; mean ± SD, n=4

| Kd [1] [nM] | inhibition of CGRP induced cAMP formation in SK-N-MC cells (IC50) [5] [nM] | other results | Binder |
| --- | --- | --- | --- |
| < 200000 |  | Kd [2]: 0.19 nM | Antibody I (antibody, human IgG4 S228P, kappa, F234A L235A, V domains shown) VH: QVQLVQSGAEVKKPGASVKVSCKASGYTFGNYWMQWVRQAPGQGLEWMGAIYEGTGDTRYIQKFAGRVTMTRDTSTSTVYMELSSLRSEDTAVYYCARLSDYVSGFSYWGQGTLVTVSS VL: DIQMTQSPSSLSASVGDRVTITCRASQDIDNYLNWYQQKPGKAPKLLIYYTSEYHSGVPSRFSGSGSGTDFTFTISSLQPEDIATYYCQQGDALPPTFGQGTKLEIKR |
| < 200000 |  | Kd [3]: 0.024 nM | Antibody V (antibody, human IgG4 S228P, kappa, F234A L235A, V domains shown) VH: QVQLVQSGAEVKKPGSSVKVSCKASGYTFGNYWMQWVRQAPGQGLEWMGAIYEGTGKTVYIQKFAGRVTITADKSTSTAYMELSSLRSEDTAVYYCARLSDYVSGFGYWGQGTTVTVSS VL: DIQMTQSPSSLSASVGDRVTITCRASQDIDKYLNWYQQKPGKAPKLLIYYTSGYHSGVPSRFSGSGSGTDFTLTISSLQPEDFATYYCQQGDALPPTFGGGTKVEIKR |
| < 200000 |  | Kd [4]: 0.026 nM | Antibody II (antibody, human IgG4 S228P, kappa, F234A L235A, V domains shown) VH: QVQLVQSGAEVKKPGASVKVSCKASGYTFGNYWMQWVRQAPGQGLEWMGAIYEGTGKTVYIQKFAGRVTMTRDTSTSTVYMELSSLRSEDTAVYYCARLSDYVSGFSYWGQGTLVTVSS VL: DIQMTQSPSSLSASVGDRVTITCRASQDIDNYLNWYQQKPGKAPKLLIYYTSEYHSGVPSRFSGSGSGTDFTFTISSLQPEDIATYYCQQGDALPPTFGQGTKLEIKR |
| < 200000 | 0.41 | Kd [6]: 0.031 nM | Antibody III (antibody, human IgG4 S228P, kappa, F234A L235A, V domains shown) VH: QVQLVQSGAEVKKPGSSVKVSCKASGYTFGNYWMQWVRQAPGQGLEWMGAIYEGTGKTVYIQKFADRVTITADKSTSTAYMELSSLRSEDTAVYYCARLSDYVSGFGYWGQGTTVTVSS VL: DIQMTQSPSSLSASVGDRVTITCRASKDISKYLNWYQQKPGKAPKLLIYYTSGYHSGVPSRFSGSGSGTDFTLTISSLQPEDFATYYCQQGDALPPTFGGGTKVEIKR |
| < 200000 |  | Kd [7]: 0.024 nM | Antibody IV (antibody, human IgG4 S228P, kappa, F234A L235A, V domains shown) VH: QVQLVQSGAEVKKPGASVKVSCKASGYTFGNYWMQWVRQAPGQGLEWMGAIYEGTGKTVYIQKFAGRVTMTRDTSTSTVYMELSSLRSEDTAVYYCARLSDYVSGFGYWGQGTLVTVSS VL: DIQMTQSPSSLSASVGDRVTITCRASRPIDKYLNWYQQKPGKAPKLLIYYTSEYHSGVPSRFSGSGSGTDFTFTISSLQPEDIATYYCQQGDALPPTFGQGTKLEIKR |
|  | 5.36 |  | Antibody G1 (antibody, V domains shown) VH: EVQLVESGGGLVQPGGSLRLSCAASGFTFSNYWISWVRQAPGKGLEWVAEIRSESDASATHYAEAVKGRFTISRDNAKNSLYLQMNSLRAEDTAVYYCLAYFDYGLAIQNYWGQGTLVTVSS VL: EIVLTQSPATLSLSPGERATLSCKASKRVTTYVSWYQQKPGQAPRLLIYGASNRYLGIPARFSGSGSGTDFTLTISSLEPEDFAVYYCSQSYNYPYTFGQGTKLEIK |
